These results are taken from patent publication US20240398942A1, “USE OF ANTI-CD40 ANTIBODY” (CHIA TAI TIANQING PHARMACEUTICAL GROUP CO., LTD., priority 2021, published 2024).

Data set [1] is described as follows: Protein thermal shift assay (GloMelt). It is filed as physicochemical. The settings on record: 25-99 °C melt curve. The protocol: A thermal stability assay was also conducted on humanized antibody huC1H1-V2. Tm (melting temperature) was determined by protein thermal shift assay using the GloMelt™ thermal shift protein stability kit (Biotium, Cat. No. 33022-T). Briefly, the GloMelt™ dye was thawed to room temperature. The vial containing the dye was vortexed and centrifuged. Then, 5 μL of the 200× dye solution was added to 95 μL of PBS to prepare a 10× dye solution. 2 μL of the 10× dye solution and 10 μg of the humanized antibody were added to the reaction system, and PBS was added to bring the total reaction volume to 20 μL. The centrifuge tubes containing the dye and the antibodies were centrifuged briefly and placed in a real-time PCR thermal cycler (Roche, LightCycler 480 II) in which the parameters of the Melt Curve program are shown in Table 4.

The test system of data set [2] is mouse colon carcinoma MC38 cells. The data set can be described thus: In vivo anti-tumor efficacy, colon carcinoma MC38 xenograft model. The settings on record: for Tumor volume on day 0: baseline at grouping; for Tumor volume on day 0 / Tumor volume on day 14: mean ± standard error; for T/C: TRTV/CRTV, day 14 vs solvent; for TGI: day 14. The protocol: The in vivo anti-tumor activity of antibody huC1H1-V2 was further determined in humanized CD40 transgenic mice (also referred to as hCD40 mice). Briefly, 1×10^6 mouse colon carcinoma MC38 cells (Shanghai Lanli Biotech, LTD., CO.) were injected subcutaneously on the right back of hCD40 mice. The tumor volume was measured using an electronic vernier caliper and calculated according to the formula (length×width^2)/2. When the mean tumor volume reached about 100 mm^3, 18 tumor-bearing mice were selected and randomly divided into 3 groups (6 mice per group), with the date of grouping designated as day 0. According to the administration regimen shown in Table 8, the mice were intravenously administered with the solvent (phosphate buffered saline, or PBS) or antibody huC1H1-V2 via tail veins since day 1.

Data set [3] concerns human B-cell lymphoma Ramos cells. Description: In vivo anti-tumor efficacy, human B-cell lymphoma Ramos xenograft model. The settings on record: for Tumor volume on day 0: baseline at grouping; for Tumor volume on day 0 / Tumor volume on day 14: mean ± standard error; for TGI: day 14; for T/C: day 14 vs isotype control. As for the experimental part:
The in vivo anti-tumor activity of antibody huC1H1-V2 was measured in NOD-SCID mice. Briefly, 3×10^7 human B-cell lymphoma Ramos cells (Chinese Academy of Sciences) were injected subcutaneously in the right axilla of NOD-SCID mice. The tumor volume was measured using an electronic vernier caliper and calculated according to the formula (length×width^2)/2. When the mean tumor volume reached about 100-150 mm^3, 40 tumor-bearing mice were selected and randomly divided into 4 groups (10 mice per group), with the date of grouping designated as day 0. According to the administration regimen shown in Table 6, the mice were intravenously administered with the isotype control antibody (anti-HEL-Human IgG2 Isotype-control, also referred to as IgG2, Biointron Inc.) or antibody huC1H1-V2 via tail veins since day 0.
A general note: Xenograft models place foreign cells or tissue in a host animal.

The T/C is the ratio of treated to control. As a reminder, the TGI is the reduction of tumour growth relative to the control group.

“And” between values parts separate entries of the source, which are not always exact repeats. Equal values may be shown once. Marks after values point to notes of the source that are not given here.

B1: huC1H1-V2: humanized C1H1 anti-CD40 antibody, VH SEQ ID NO: 20 X1=S, VL SEQ ID NO: 24 X1=K X2=F, human IgG2/κ (antibody, V domains shown)
VH: EVQLVESGGGLVKPGGSLRLSCAASGFTFSNYGISWVRQAPGKGLEWVXSISSGGDNTYYPDNVKGRFTISRDNAKNSLYLQMNSLRAEDTAVYYCARAGEKAMDYWGQGTLVTVSS
VL: EIVLTQSPATLSLSPGERATLSCRASQTINNNLHWYQQKPGQAPRLLIXYASQSISGIPARFSGSGSGTDFTLTISSLEPEDFAVYXCQQFSSWPLTFGGGTKVEIK
modifications: not fully specified; variable positions X1=S; VL X1=K X2=F; IgG2/kappa constant; VH of huC1H1-V1 to huC1H1-V4; VARIANT 49 X can be A or S; VL of huC1H1-V1 to huC1H1-V4; VARIANT 49 X can be K or Y; VARIANT 87 X can be F or Y
As for B1, in data set [1], the “Tm (melting temperature)” value turned out to be 70 °C. Further, the “Tumor volume on day 0” value in data set [2] (3 mg/kg i.v. Q2D × 7 doses) is on record as 111 ± 5 mm^3; in data set [2] (10 mg/kg i.v. Q2D × 7 doses), 113 ± 8 mm^3; in data set [3] (1.5 mg/kg i.v. Q2D × 8 doses) it was 111.1 ± 2.0 mm^3; in data set [3] (5 mg/kg i.v. Q2D × 8 doses), 114.5 ± 1.5 mm^3; in data set [3] (15 mg/kg i.v. Q2D × 8 doses), 114.3 ± 1.3 mm^3. Moreover, the “Tumor volume on day 14” value in data set [2] (3 mg/kg i.v. Q2D × 7 doses) is 1169 mm^3 and 1169 ± 217** mm^3; in data set [2] (10 mg/kg i.v. Q2D × 7 doses) it was 1446 mm^3 and 1446 ± 467* mm^3; in data set [3] (1.5 mg/kg i.v. Q2D × 8 doses), 431.9 ± 58.0*** mm^3; in data set [3] (5 mg/kg i.v. Q2D × 8 doses), 230.2 mm^3 and 230.2 ± 36.3*** mm^3; in data set [3] (15 mg/kg i.v. Q2D × 8 doses) it was 242.5 ± 22.1*** mm^3. Further, the T/C is 36% in data set [2] (3 mg/kg i.v. Q2D); 44% in data set [2] (10 mg/kg i.v. Q2D); 12% in data set [3] (1.5 mg/kg i.v. Q2D); 4% in data set [3] (5 mg/kg i.v. Q2D); 5% in data set [3] (15 mg/kg i.v. Q2D). The TGI in data set [2] (3 mg/kg i.v. Q2D) was determined as 64%; in data set [2] (10 mg/kg i.v. Q2D) it was 56%; in data set [3] (1.5 mg/kg i.v. Q2D), 88%; in data set [3] (5 mg/kg i.v. Q2D) it was 96%; in data set [3] (15 mg/kg i.v. Q2D) it was 95%. Also, the “Tolerability (weight loss or any symptoms)” value in data set [2] (3 and 10 mg/kg i.v. Q2D × 7 doses, tumor-bearing mice) is listed as “well tolerated”. In data set [3] (1.5, 5, 15 mg/kg i.v. Q2D × 8 doses, tumor-bearing mice), the “Tolerability (weight loss or other symptoms)” value is recorded as “well tolerated”.
